Laboratory results from US12006519B2, “Polymerase mutants and use with 3′-OH unblocked reversible terminators” (Agilent Technologies, Inc., priority 2021, dated 2024).
Changes are numbered by the printed parent chain. Names and notes keep the numbering of the source.

Experiments:
Assay type in all cases: biochemical
Lightning Terminators = assay: Sequencing-by-synthesis with Lightning Terminators (87 cycles); parameters: ARL (87 cycles) / Lead + Lag / Leading / Lagging: unit not given here
Description: (§1) This section generally describes how the present mutant polymerases were used for sequencing-by-synthesis, and how their performance in sequencing was measured. Sequencing was performed on a breadboard instrument, essentially as described in Hertzog D, et al., “A high-performance, low-cost approach to next-generation sequencing”, BioOptics World. 2011 Issue November/December 2011.
In this example, mutations were introduced into the DNA polymerase of SEQ ID NO: 12 (Therminator) in an attempt to improve its capability in sequencing with 3′-OH unblocked terminators. Such mutations to Thermococcus sp. 9° N DNA polymerase are disclosed in U.S. Pat. Nos. 9,273,352; 9,677,059; 9,765,309; U.S. Pat. App. Publication No. 20160032377. The following table summarizes sequencing metrics with Lightning Terminators.
As used in this example and those that follow, “Lead+Lag” refers to dephasing errors in Sequencing by Synthesis technology caused by either reading the next base signal (Lead) or reading the previous base signal (Lag) relative to current base signals. Such errors may arise because of imperfect incoporation of reversible terminators by the polymerase.
In this example, mutant polymerases were created by introducing certain mutations (D141A/E143A/A485L) which are present in Therminator. The three mutations were introduced at the equivalent positions in JDF3 (Thermococcus sp. JDF3) and Pfu (Pyrococcus furisosus) DNA polymerases. The new mutant polymerases were then evaluated for their performance in sequencing with Lightning Terminators, as described above.

E. coli DNA library = assay: Sequencing with Lightning Terminators, E. coli DNA library (120 cycles)
Description: as §1
(§2) In this example, a variety of mutations were introduced into Pfu10 by multi-site mutagenesis or into Pfu A486L/Y546H by domain substitutions to explore an acceptable degree of reduced identity and identify other mutant Pfu polymerases containing L486, F494, H546, and W477. […] Pfu10 and Pfu10-N12 were evaluated for performance in sequencing with Lightning Terminators, as described above.

Human DNA library = assay: Sequencing with Lightning Terminators, Human DNA library (120 cycles)
Description: as §1, §2

[1] = Therminator mutants, same unit concentrations (0.08 U/ul in cycle 1 and 0.008 U/ul in cycles 2-n)
[2] = alternative polymerases (D141A/E143A), same protein concentrations (0.02 ug/uL in cycle 1 and 0.002 ug/uL in cycles 2-n)

B1: K476W: Therminator with mutation K476W (9° N DNA pol numbering) (protein, UniProt Q56366 1-775, looked up, variant D141A E143A A485L K476W)
DNA polymerase: MILDTDYITENGKPVIRVFKKENGEFKIEYDRTFEPYFYALLKDDSAIEDVKKVTAKRHGTVVKVKRAEKVQKKFLGRPIEVWKLYFNHPQDVPAIRDRIRAHPAVVDIYEYDIPFAKRYLIDKGLIPMEGDEELTMLAFAIATLYHEGEEFGTGPILMISYADGSEARVITWKKIDLPYVDVVSTEKEMIKRFLRVVREKDPDVLITYNGDNFDFAYLKKRCEELGIKFTLGRDGSEPKIQRMGDRFAVEVKGRIHFDLYPVIRRTINLPTYTLEAVYEAVFGKPKEKVYAEEIAQAWESGEGLERVARYSMEDAKVTYELGREFFPMEAQLSRLIGQSLWDVSRSSTGNLVEWFLLRKAYKRNELAPNKPDERELARRRGGYAGGYVKEPERGLWDNIVYLDFRSLYPSIIITHNVSPDTLNREGCKEYDVAPEVGHKFCKDFPGFIPSLLGDLLEERQKIKRKMKATVDPLEWKLLDYRQRLIKILANSFYGYYGYAKARWYCKECAESVTAWGREYIEMVIRELEEKFGFKVLYADTDGLHATIPGADAETVKKKAKEFLKYINPKLPGLLELEYEGFYVRGFFVTKKKYAVIDEEGKITTRGLEIVRRDWSEIAKETQARVLEAILKHGDVEEAVRIVKEVTEKLSKYEVPPEKLVIHEQITRDLRDYKATGPHVAVAKRLAARGVKIRPGTVISYIVLKGSGRIGDRAIPADEFDPTKHRYDAEYYIENQVLPAVERILKAFGYRKEDLRYQKTKQVGLGAWLKVKGKK
modifications: Therminator
% reads >85 bp (Lightning Terminators; [1]): 31.8%
ARL (87 cycles) (Lightning Terminators; [1]): 70.2
Lead + Lag (Lightning Terminators; [1]): 1.4

B2: K477M: Therminator with mutation K477M (9° N DNA pol numbering) (protein, UniProt Q56366 1-775, looked up, variant D141A E143A A485L K477M)
DNA polymerase: B1 DNA polymerase with W476K, K477M
modifications: Therminator
% reads >85 bp (Lightning Terminators; [1]): 27.7%
ARL (87 cycles) (Lightning Terminators; [1]): 68.8
Lead + Lag (Lightning Terminators; [1]): 1.6

B3: R743A: Therminator with mutation R743A (9° N DNA pol numbering) (protein, UniProt Q56366 1-775, looked up, variant D141A E143A A485L R743A)
DNA polymerase: B1 DNA polymerase with W476K, R743A
% reads >85 bp (Lightning Terminators; [1]): 8.6%
ARL (87 cycles) (Lightning Terminators; [1]): 55.0
Lead + Lag (Lightning Terminators; [1]): 2.4

B4: A639F: Therminator with mutation A639F (9° N DNA pol numbering) (protein, UniProt Q56366 1-775, looked up, variant D141A E143A A485L A639F)
DNA polymerase: B1 DNA polymerase with W476K, A639F
modifications: Therminator
% reads >85 bp (Lightning Terminators; [1]): 6.9%
ARL (87 cycles) (Lightning Terminators; [1]): 58.5
Lead + Lag (Lightning Terminators; [1]): 2.3

B5: T144G: Therminator with mutation T144G (9° N DNA pol numbering) (protein, UniProt Q56366 1-775, looked up, variant D141A E143A A485L T144G)
DNA polymerase: B1 DNA polymerase with T144G, W476K
modifications: Therminator
% reads >85 bp (Lightning Terminators; [1]): 31.8%
ARL (87 cycles) (Lightning Terminators; [1]): 70.5
Lead + Lag (Lightning Terminators; [1]): 1.4

B6: T590I: Therminator with mutation T590I (9° N DNA pol numbering) (protein, UniProt Q56366 1-775, looked up, variant D141A E143A A485L T590I)
DNA polymerase: B1 DNA polymerase with W476K, T590I
modifications: Therminator
% reads >85 bp (Lightning Terminators; [1]): 32.2%
ARL (87 cycles) (Lightning Terminators; [1]): 68.1
Lead + Lag (Lightning Terminators; [1]): 1.3

B7: T514S: Therminator with mutation T514S (9° N DNA pol numbering) (protein, UniProt Q56366 1-775, looked up, variant D141A E143A A485L T514S)
DNA polymerase: B1 DNA polymerase with W476K, T514S
modifications: Therminator
% reads >85 bp (Lightning Terminators; [1]): 38.3%
ARL (87 cycles) (Lightning Terminators; [1]): 72.0
Lead + Lag (Lightning Terminators; [1]): 1.1

B8: G153D: Therminator with mutation G153D (9° N DNA pol numbering) (protein, UniProt Q56366 1-775, looked up, variant D141A E143A A485L G153D)
DNA polymerase: B1 DNA polymerase with G153D, W476K
modifications: Therminator
% reads >85 bp (Lightning Terminators; [1]): 21.5%
ARL (87 cycles) (Lightning Terminators; [1]): 66.7
Lead + Lag (Lightning Terminators; [1]): 1.8

B9: D718N: Therminator with mutation D718N (9° N DNA pol numbering) (protein, UniProt Q56366 1-775, looked up, variant D141A E143A A485L D718N)
DNA polymerase: B1 DNA polymerase with W476K, D718N
% reads >85 bp (Lightning Terminators; [1]): 17.9%
ARL (87 cycles) (Lightning Terminators; [1]): 65.6
Lead + Lag (Lightning Terminators; [1]): 1.8

B10: I521L: Therminator with mutation I521L (9° N DNA pol numbering) (protein, UniProt Q56366 1-775, looked up, variant D141A E143A A485L I521L)
DNA polymerase: B1 DNA polymerase with W476K, I521L
modifications: Therminator
% reads >85 bp (Lightning Terminators; [1]): 2.8%
ARL (87 cycles) (Lightning Terminators; [1]): 53.9
Lead + Lag (Lightning Terminators; [1]): 2.8

B11: Therminator: DNA polymerase of SEQ ID NO:12, derivative of Thermococcus sp. 9° N-7 DNA polymerase (D141A/E143A/A485L), New England Biolabs (protein)
chain: B1 DNA polymerase with W476K
% reads >85 bp (Lightning Terminators; Example 3): 49.6%
FracQ30 (Lightning Terminators; Example 3): 0.58
Lagging (Lightning Terminators; Example 3): 0.61
Leading (Lightning Terminators; Example 3): 0.70
ARL (87 cycles) (Lightning Terminators; Example 3, Therminator 110 runs, Pfu10 12 runs): 76.0
% reads >85 bp (Lightning Terminators; [1]): 35.4%
ARL (87 cycles) (Lightning Terminators; [1]): 72.3
Lead + Lag (Lightning Terminators; [1]): 1.6
% reads >85 (Lightning Terminators; [2]): 49.6%
ARL (87 cycles) (Lightning Terminators; [2]): 76.0
Lead + Lag (Lightning Terminators; [2]): 1.3

B12: L478S: Therminator with mutation L478S (9° N DNA pol numbering) (protein, UniProt Q56366 1-775, looked up, variant D141A E143A A485L L478S)
DNA polymerase: B1 DNA polymerase with W476K, L478S
modifications: Therminator
% reads >85 bp (Lightning Terminators; [1]): 19.6%
ARL (87 cycles) (Lightning Terminators; [1]): 65.8
Lead + Lag (Lightning Terminators; [1]): 1.6

B13: Pfu10-N12: Pfu10 variant with 15 conservative mutations plus M129A, SEQ ID NO:3 (protein)
chain: MILDVDYITEEGKPIIRLFKKENGKFRIEHDRTFRPYIYALLRDDSKIEEIKKITGERHGKIVRIVDVEKVEKKFLGKPVTVWRLYLEHPQDVPTIREKVKEHPAVIDIFEYDIPFAKRYLIDKGLVPAEGEEELKILAFAIATLYHEGEEFGKGPIIMISYADENEAKVITWKNIDLPYVEVVSSEREMIKRFVKIIKEKDPDIIVTYNGDSFDFPYLAKRAEKLGVKLTIGRDGSEPKMQRIGDMTAVEVKGRIHFDLYHVITRTINLPTYTLEAVYEAIFGKPKEKVYADEIAKAWESGENLERVAKYSMEDAKATYELGKEFLPMEIQLSRLVGQPLWDVSRSSTGNLVEWFLLRKAYERNEVAPNKPSEEEYQRRLRESYTGGFVKEPEKGLWENIVYLDFRALYPSIIITHNVSPDTLNLEGCKNYDIAPQVGHKFCKDIPGFIPSLLGHLLEERQKIKTKMKETQDPIEWILLDYRQKLIKLLANSFYGYYGYARARWYCRECAESVTAWGRKYIELTWKELEEKFGFKVLYIDTDGLHATIPGGESEEIKKKALEFVKYINSKLPGLLELEYEGFYKRGFFVTKKRYAVIDEEGKVITRGLEIVRRDWSEIAKETQARVLETILKHGDVEEAVRIVKEVIQKLANYEIPPEKLAIYEQITRPLHEYKAIGPHVAVAKKLAAKGVKIKPGMVIGYIVLRGDGPISNRAILAEEYDPKKHKYDAEYYIENQVLPAVLRILEGFGYRKEDLRYQKTRQVGLTSWLNIKKS
modifications: Mutant of Pyrococcus furiosus Polymerase
% reads >85 (E. coli DNA library): 82.6%
ARL (120 cycles) (E. coli DNA library): 93.8
FracQ30 (E. coli DNA library): 0.65
Lead + Lag (E. coli DNA library): 0.9
% reads >85 (Human DNA library; Human DNA library): 93.3%
ARL (120 cycles) (Human DNA library; Human DNA library): 111.6
FracQ30 (Human DNA library; Human DNA library): 0.68
Lead + Lag (Human DNA library; Human DNA library): 1.0
Sequencing performance with Lightning Terminators (in words) (Human DNA library; Human and E. coli libraries, compared with Pfu10): performs comparably if not slightly better than Pfu10
